Results published in IntAct's records for PubMed 22328087.

B1: Membrane protein MLC1 (Homo sapiens), Q15049 (parent)
chain: MTQEPFREELAYDRMPTLERGRQDPASYAPDAKPSDLQLSKRLPPCFSHKTWVFSVLMGSCLLVTSGFSLYLGNVFPAEMDYLRCAAGSCIPSAIVSFTVSRRNANVIPNFQILFVSTFAVTTTCLIWFGCKLVLNPSAININFNLILLLLLELLMAATVIIAARSSEEDCKKKKGSMSDSANILDEVPFPARVLKSYSVVEVIAGISAVLGGIIALNVDDSVSGPHLSVTFFWILVACFPSAIASHVAAECPSKCLVEVLIAISSLTSPLLFTASGYLSFSIMRIVEMFKDYPPAIKPSYDVLLLLLLLVLLLQAGLNTGTAIQCVRFKVSARLQGASWDTQNGPQERLAGEVARSPLKEFDKEKAWRAVVVQMAQ

Variants of: B1
Conditions: with at1b1_human ATP1B1, P05026

| effect of a mutation on the interaction | Variant |
| --- | --- |
| disrupting interaction | C125R |
| disrupting interaction | S280L |

Variants of: B1
Conditions: with at1b1_human ATP1B1, P05026
Remark: another data set of the same source

| effect of a mutation on the interaction | Variant |
| --- | --- |
| decreasing interaction | S280L |
| decreasing interaction | S246R |
